According to the Human Domainome abundance scans (Beltran et al. 2025):
± gives the uncertainty stated by the source.

Experiment: abundance fitness (aPCA) (normalised: wild type 0, dead -1); higher = more abundant; growth selection in yeast, the domain comes from the species named
Conditions: Homo sapiens
Work on “DnaJ homolog subfamily B member 1 S56T, P25685” yielded an abundance fitness of -0.111 ± 0.087.
“DnaJ homolog subfamily B member 1 S56V, P25685” showed an abundance fitness of -0.071 ± 0.066.
In the case of “DnaJ homolog subfamily B member 1 S56W, P25685”, the abundance fitness is reported as -0.853 ± 0.11.
“DnaJ homolog subfamily B member 1 S56Y, P25685” showed an abundance fitness of -0.493 ± 0.11.
Work on “DnaJ homolog subfamily B member 1 T8A, P25685” yielded an abundance fitness of -0.143 ± 0.079.
“DnaJ homolog subfamily B member 1 T8C, P25685” showed an abundance fitness of -0.096 ± 0.094.
For “DnaJ homolog subfamily B member 1 T8D, P25685”, the abundance fitness was -0.101 ± 0.083.
With “DnaJ homolog subfamily B member 1 T8E, P25685” the abundance fitness was -0.239 ± 0.11.
“DnaJ homolog subfamily B member 1 T8F, P25685” showed an abundance fitness of -0.352 ± 0.17.
“DnaJ homolog subfamily B member 1 T8G, P25685” gave an abundance fitness of -0.469 ± 0.099.
With “DnaJ homolog subfamily B member 1 T8H, P25685” the abundance fitness was 0.211 ± 0.46.
“DnaJ homolog subfamily B member 1 T8I, P25685” showed an abundance fitness of 0.036 ± 0.088.
Substance “DnaJ homolog subfamily B member 1 T8L, P25685” has an abundance fitness of -0.101 ± 0.071.
Substance “DnaJ homolog subfamily B member 1 T8M, P25685” has an abundance fitness of -0.121 ± 0.17.
In the case of “DnaJ homolog subfamily B member 1 T8N, P25685”, the abundance fitness is reported as -0.303 ± 0.18.
For “DnaJ homolog subfamily B member 1 T8P, P25685”, the abundance fitness was -0.333 ± 0.067.
In the case of “DnaJ homolog subfamily B member 1 T8Q, P25685”, the abundance fitness is reported as -0.165 ± 0.12.
In the case of “DnaJ homolog subfamily B member 1 T8S, P25685”, the abundance fitness is reported as -0.149 ± 0.093.
For “DnaJ homolog subfamily B member 1 T8V, P25685”, the abundance fitness was -0.106 ± 0.058.
In the case of “DnaJ homolog subfamily B member 1 T8W, P25685”, the abundance fitness is reported as -0.281 ± 0.1.
Work on “DnaJ homolog subfamily B member 1 T8Y, P25685” yielded an abundance fitness of -0.261 ± 0.05.
“DnaJ homolog subfamily B member 1 V54A, P25685” gave an abundance fitness of -0.201 ± 0.2.
Substance “DnaJ homolog subfamily B member 1 V54C, P25685” has an abundance fitness of 0.063 ± 0.086.
With “DnaJ homolog subfamily B member 1 V54D, P25685” the abundance fitness was -0.419 ± 0.14.
For “DnaJ homolog subfamily B member 1 V54E, P25685”, the abundance fitness was -0.126 ± 0.15.
In the case of “DnaJ homolog subfamily B member 1 V54F, P25685”, the abundance fitness is reported as 0.077 ± 0.21.
In the case of “DnaJ homolog subfamily B member 1 V54G, P25685”, the abundance fitness is reported as -0.322 ± 0.058.
In the case of “DnaJ homolog subfamily B member 1 V54H, P25685”, the abundance fitness is reported as -0.886 ± 0.19.
For “DnaJ homolog subfamily B member 1 V54I, P25685”, the abundance fitness was -0.096 ± 0.12.
For “DnaJ homolog subfamily B member 1 V54L, P25685”, the abundance fitness was -0.171 ± 0.076.
“DnaJ homolog subfamily B member 1 V54M, P25685” showed an abundance fitness of -0.084 ± 0.14.
For “DnaJ homolog subfamily B member 1 V54N, P25685”, the abundance fitness was -0.084 ± 0.11.
Work on “DnaJ homolog subfamily B member 1 V54P, P25685” yielded an abundance fitness of -0.699 ± 0.059.
Substance “DnaJ homolog subfamily B member 1 V54Q, P25685” has an abundance fitness of -0.423 ± 0.21.
With “DnaJ homolog subfamily B member 1 V54S, P25685” the abundance fitness was -0.15 ± 0.076.
“DnaJ homolog subfamily B member 1 V54T, P25685” gave an abundance fitness of 0.065 ± 0.12.
In the case of “DnaJ homolog subfamily B member 1 V54W, P25685”, the abundance fitness is reported as -0.185 ± 0.16.
Substance “DnaJ homolog subfamily B member 1 V54Y, P25685” has an abundance fitness of -0.211 ± 0.27.
Work on “DnaJ homolog subfamily B member 1 Y5A, P25685” yielded an abundance fitness of -0.316 ± 0.13.
With “DnaJ homolog subfamily B member 1 Y5C, P25685” the abundance fitness was -0.164 ± 0.18.
In the case of “DnaJ homolog subfamily B member 1 Y5E, P25685”, the abundance fitness is reported as -0.808 ± 0.28.
Substance “DnaJ homolog subfamily B member 1 Y5F, P25685” has an abundance fitness of -0.449 ± 0.16.
Work on “DnaJ homolog subfamily B member 1 Y5G, P25685” yielded an abundance fitness of -0.672 ± 0.092.
In the case of “DnaJ homolog subfamily B member 1 Y5H, P25685”, the abundance fitness is reported as 0.024 ± 0.068.
“DnaJ homolog subfamily B member 1 Y5I, P25685” showed an abundance fitness of -0.416 ± 0.21.
With “DnaJ homolog subfamily B member 1 Y5K, P25685” the abundance fitness was -0.493 ± 0.15.
In the case of “DnaJ homolog subfamily B member 1 Y5L, P25685”, the abundance fitness is reported as -0.284 ± 0.14.
“DnaJ homolog subfamily B member 1 Y5M, P25685” gave an abundance fitness of -0.179 ± 0.11.
“DnaJ homolog subfamily B member 1 Y5N, P25685” showed an abundance fitness of -0.392 ± 0.12.
With “DnaJ homolog subfamily B member 1 Y5P, P25685” the abundance fitness was -0.232 ± 0.15.
Work on “DnaJ homolog subfamily B member 1 Y5Q, P25685” yielded an abundance fitness of -0.3 ± 0.15.
In the case of “DnaJ homolog subfamily B member 1 Y5R, P25685”, the abundance fitness is reported as -0.52 ± 0.11.
With “DnaJ homolog subfamily B member 1 Y5S, P25685” the abundance fitness was -0.262 ± 0.1.
Work on “DnaJ homolog subfamily B member 1 Y5T, P25685” yielded an abundance fitness of -0.699 ± 0.24.
For “DnaJ homolog subfamily B member 1 Y5V, P25685”, the abundance fitness was -1.47 ± 0.2.
“DnaJ homolog subfamily B member 1 Y5W, P25685” gave an abundance fitness of -0.305 ± 0.22.
“DnaJ homolog subfamily B member 1 Y6A, P25685” gave an abundance fitness of -0.991 ± 0.18.
“DnaJ homolog subfamily B member 1 Y6C, P25685” gave an abundance fitness of -0.863 ± 0.22.
“DnaJ homolog subfamily B member 1 Y6D, P25685” gave an abundance fitness of -0.747 ± 0.16.
“DnaJ homolog subfamily B member 1 Y6E, P25685” gave an abundance fitness of -0.683 ± 0.097.
Work on “DnaJ homolog subfamily B member 1 Y6F, P25685” yielded an abundance fitness of -0.162 ± 0.16.
“DnaJ homolog subfamily B member 1 Y6G, P25685” gave an abundance fitness of -0.977 ± 0.2.
For “DnaJ homolog subfamily B member 1 Y6K, P25685”, the abundance fitness was -0.911 ± 0.15.
“DnaJ homolog subfamily B member 1 Y6M, P25685” showed an abundance fitness of -0.806 ± 0.11.
In the case of “DnaJ homolog subfamily B member 1 Y6N, P25685”, the abundance fitness is reported as -0.523 ± 0.13.
With “DnaJ homolog subfamily B member 1 Y6P, P25685” the abundance fitness was -0.589 ± 0.2.
“DnaJ homolog subfamily B member 1 Y6Q, P25685” gave an abundance fitness of -0.742 ± 0.13.
Work on “DnaJ homolog subfamily B member 1 Y6R, P25685” yielded an abundance fitness of -0.986 ± 0.1.
Work on “DnaJ homolog subfamily B member 1 Y6S, P25685” yielded an abundance fitness of -0.817 ± 0.072.
Work on “DnaJ homolog subfamily B member 1 Y6T, P25685” yielded an abundance fitness of -0.557 ± 0.11.
Work on “DnaJ homolog subfamily B member 1 Y6V, P25685” yielded an abundance fitness of -1.18 ± 0.086.
“DnaJ homolog subfamily B member 1 Y6W, P25685” showed an abundance fitness of -0.204 ± 0.13.
In the case of “DnaJ homolog subfamily B member 1 Y24A, P25685”, the abundance fitness is reported as -0.686 ± 0.24.
For “DnaJ homolog subfamily B member 1 Y24C, P25685”, the abundance fitness was -0.504 ± 0.086.
In the case of “DnaJ homolog subfamily B member 1 Y24D, P25685”, the abundance fitness is reported as -0.654 ± 0.16.
With “DnaJ homolog subfamily B member 1 Y24E, P25685” the abundance fitness was -0.411 ± 0.1.
“DnaJ homolog subfamily B member 1 Y24F, P25685” gave an abundance fitness of -0.075 ± 0.2.
Work on “DnaJ homolog subfamily B member 1 Y24G, P25685” yielded an abundance fitness of -0.499 ± 0.1.
Substance “DnaJ homolog subfamily B member 1 Y24H, P25685” has an abundance fitness of -0.38 ± 0.2.
“DnaJ homolog subfamily B member 1 Y24I, P25685” gave an abundance fitness of -0.788 ± 0.2.
“DnaJ homolog subfamily B member 1 Y24K, P25685” gave an abundance fitness of -0.358 ± 0.099.
For “DnaJ homolog subfamily B member 1 Y24L, P25685”, the abundance fitness was -0.492 ± 0.061.
“DnaJ homolog subfamily B member 1 Y24M, P25685” showed an abundance fitness of -0.223 ± 0.074.
With “DnaJ homolog subfamily B member 1 Y24N, P25685” the abundance fitness was -0.408 ± 0.11.
Substance “DnaJ homolog subfamily B member 1 Y24Q, P25685” has an abundance fitness of -0.547 ± 0.091.
Substance “DnaJ homolog subfamily B member 1 Y24R, P25685” has an abundance fitness of -0.404 ± 0.055.
Substance “DnaJ homolog subfamily B member 1 Y24S, P25685” has an abundance fitness of -0.464 ± 0.055.
Work on “DnaJ homolog subfamily B member 1 Y24T, P25685” yielded an abundance fitness of -0.427 ± 0.08.
“DnaJ homolog subfamily B member 1 Y24V, P25685” gave an abundance fitness of -0.547 ± 0.09.
“DnaJ homolog subfamily B member 1 Y24W, P25685” showed an abundance fitness of -0.159 ± 0.079.
Substance “DnaJ homolog subfamily B member 1 Y31A, P25685” has an abundance fitness of -0.175 ± 0.12.
“DnaJ homolog subfamily B member 1 Y31D, P25685” showed an abundance fitness of -0.27 ± 0.16.
With “DnaJ homolog subfamily B member 1 Y31E, P25685” the abundance fitness was -0.294 ± 0.089.
In the case of “DnaJ homolog subfamily B member 1 Y31F, P25685”, the abundance fitness is reported as -0.347 ± 0.17.
For “DnaJ homolog subfamily B member 1 Y31G, P25685”, the abundance fitness was -0.302 ± 0.1.
Work on “DnaJ homolog subfamily B member 1 Y31H, P25685” yielded an abundance fitness of -0.494 ± 0.21.
“DnaJ homolog subfamily B member 1 Y31I, P25685” showed an abundance fitness of -0.259 ± 0.052.
Work on “DnaJ homolog subfamily B member 1 Y31L, P25685” yielded an abundance fitness of -0.16 ± 0.063.
With “DnaJ homolog subfamily B member 1 Y31M, P25685” the abundance fitness was -0.164 ± 0.092.
Work on “DnaJ homolog subfamily B member 1 Y31N, P25685” yielded an abundance fitness of -0.287 ± 0.14.
“DnaJ homolog subfamily B member 1 Y31P, P25685” showed an abundance fitness of -0.537 ± 0.095.
“DnaJ homolog subfamily B member 1 Y31Q, P25685” gave an abundance fitness of -0.181 ± 0.12.
Work on “DnaJ homolog subfamily B member 1 Y31R, P25685” yielded an abundance fitness of -0.401 ± 0.086.
“DnaJ homolog subfamily B member 1 Y31T, P25685” gave an abundance fitness of -0.369 ± 0.12.
